This series in a line: label from the status in PepcDB records.
With “MTQPEETPVSFIPSNFIEKGKILNGTFDIRNAIESIVLSLAIGIPVFHLPLSLTARIIILCMTALPAAMVALIGIGGESITAFLMNALRFVVNRRVIWRSDSLPEGKPRRKPRFKEPKTKKHRKAEKMAEPSKVMASAPPQSEPDAPAPPKSKKKEHRQFDTSTKRGIKKQAKEDIRYLKWEQKEASRQKKEAAKQIKIQKKTEARRRKEEEKRAVSEKRAAKKEQKKKVVSKEDTSSATSKPVSRKKRKKDQTLEDYLPVEKIANGIVYTTDGRYVKILEIEPINFLLRSAREQQGIIYSFISYLKISPVKLQIKMISKKADINKHLEQSQLELERETDPHCQELQRDYIQFVQNLSSREAVSRRFFLIFEYEPFNANRKEEEREILAALETASQTAKTFLYQCGNEVVSHDNEDEFTTDVLYTLLNRTLCTEVPLSNRISTVLSAYTKENRMEELDHIRINEFLAPESVDFKHSHYVQINGLYHSYLLVPSDGYKNRVTPGWLSLLVNAGEGIDIDFFLQKQPKDKIQQRLGQQIRINRSKLKDASDTNTDYDDLDSAIRSGYFLKQGLANNEDFYYMNLLITITASTLEELQWRIQEMKKLLISQDMNLHSCYFLQEQGFLSSLPLANLDKKLFKLSKRNVLTSGAASCYPFVSYSICDDNGILFGVNKHNNSLVIADIFDSRQYKNSNICILGCSGAGKTFTMQTMALRMRRKGIQVFIIAPLKGHEFYRAARNVGGEFIQISPASKNCINIMEIRKVDNSVNELLDGPTLDASALAGKIQRLHIFFSLLIPDMSHEEKQLLDEALIKTYARKGITHKNESLTDPQHPEQYKKMPILEDVYNVLLESEDTKRLAHILNRLVHGSASSFNQQTNVDLTNKYTVLDISELTGSSDLLTVGMFVALDYVWDKAKENRTEEKAIFVDEVWQLIGASSNRLAAEFVLEIAKIIRAYSGAGIFATQDLNDFFALDDGKYGKGIINNCKTKIILNMEDEEAQRVKTILHLSETEVMNITHFQRGNGLISTNNNNITVEFKASNLEKELITTERQELLEILAKQKKQAV”, the protein production result is “failed”. In the case of “MELLNVLAAAFGAFALGSVWYMVLAEPWMQDAKVPRGPDGRPEGGMTPGIFAASFVLQLIVAGMMRHVFALSGIDSPGAGIVAGIGVGLFFIAPWITLNNLYGMRPLRLSLIDGGYATLACAVMGLILTLF” it was “failed”. In the case of “MKTINLSIFGLGNVGLNLLRIIRSFNEENRLGLKFNVVFVADSLHSYYNERIDIGKVISYKEKGSLDSLEYESISASEALARDFDIVVDATPASADGKKELAFYKETFENGKDVVTANKSGLANFWPEIMEYARSNNRRIRYEATVAGGVPLFSFIDYSVLPSRIKKFRGIVSLTINYFIRELANKREFDDVLSEATKLGIVEKNYKDDLTGLDAARKSVILCNHLYGSSYRLSDVFYEGILDQDRSFGKNERLVTETGIVNGKPSAESRIKSLDSNDYLLTLGKGSLGYQLQTDTNGTLNVSDLYDGPYETAGAVMNDLVILSMFTV” it was “not failed”. In the case of “MRWRADFLSAWAEALLRKAGADEPSAKAVAWALVEADLRGVGSHGLLRLPVYVRRLEAGLVNPSPTLPLEERGPVALLDGEHGFGPRVALKAVEAAQSLARRHGLGAVGVRRSTHFGMAGLYAEKLAREGFVAWVTTNAEPDVVPFGGREKALGTNPLAFAAPAPQGILVADLATSESAMGKVFLAREKGERIPPSWGVDREGSPTDDPHRVYALRPLGGPKGYALALLVEVLSGVLTGAGVAHGIGRMYDEWDRPQDVGHFLLALDPGRFVGKEAFLERMGALWQALKATPPAPGHEEVFLPGELEARRRERALAEGMALPERVVAELKALGERYGVPWRDDA”, the protein production entry is listed as “not failed”. In the case of “MMTGLYLGALAGIAVALAVLMAGAWVVQQLTGNSGWVDTIWTFSLGLTGAVSSLWPIDGAAPDARQWLVAVLVATWSLRLGSHIAARTRHITDDPRYAAYAAQWGTDAPKRMFFFLQNQAYGTIPLVFAIFVAAHAPAGSLRLQDYLGVLILIVAIAGEGLSDAQLKAFRENSANKGKVCDAGLWRWSRHPNYFFQWFGWLAYPVIAIPFAEPLSYLWGYAALLAPLFMYWILVYVTGIPPLEEQMLKSRGDRYRDYQARTSMFFPLPPRRSATL” it was “failed”; in that of “MVEGVHCVPDSVELMPKQHDIPRARLRIVVHEGRNHEVRELVKNAGLEVHSLKRVRIGGFRLPSDLGLGKHVELKQSELKALGWKN”, “not failed”; in that of “MSQQKHADQDYALETVPSESKKGFLPMFAIMLGFTFFSASMWAGGTIGTGLKFQTFLLAVLMGNLLLGLYTGALAYIGSSTGLSTHLLARYSFGEKGSYLASFILAITQVGWFGVGVAMFSLPVHYATGIDLNILLLLSGILMTTTAYFGIKSLTVLSMISVPAITLLGIYSVTGAVNSIGGISELFAIEPANNLGLAVGLSLCIGSFISGGTLTPDFSRFSKSKSIGVISTFIAFFIGNSLMFIFGAVGASTLGQSDISEVMLKQGLIIPAIIILGLNIWTTNDNALYASGLGFSNITKIPKKHVVIFNGLIGTLGALVLYNNFVGWLTLLSSIIPSIGGIIISDYFINKRQKYASLENIKVKKVHWNAVIAWVLGVFASQFLPGISPINAVFGSAIIYIVLETLKKNNI”, “failed”. “MADTSCKLKPLCFRFVSTLKSPIAVITVTYSPGKYLASFLDSLPGATSRDTHVVMADNGSVDGVPEQAAASRSNVEFLSTGGNLGYGTAINIAARSLRARREAGEIDGEFFLVSNPDVVFDEDSIDQLLECAKRHPEAGAVGPLIREADGSAYPSARAVPTLANGIGHALLGAVWKSNPWSAAYRDDEDMDTERTAGWLSGSCLLLRWDAFDRVGGFDERYFMYMEDVDLGDRLVRAGFTNVFCPSAQIIHAKGHVAGKNPENMLPAHHESAYRFQADRLAKPWQAPIRLALRIGLKLRAGVAVGVSKMRTKASLEHHHHHH”: the protein production result is on record as “failed”. In the case of “MKEIQYEIVKEIAVLSASDSGYTKEINLISWNGREPKYDIRSFSPNREKCGKGITLNADEAAALLEALQKEVNSGD” it was “failed”; in that of “MDGSFVQHSVRVLQELNKQREKGQYCDATLDVGGLVFKAHWSVLACCSHFFQRIYGDGTGGSVVLPAGFAEIFGLLLDFFYTGHLALTSGNRDQVLLAAKELRVPEAVELCQSFQPQTSVGQAQSGLGQPASQDVKSHLKEPTDLDEEEVFKTLSLASVDQEPRDTEQPQLGTPAQSSTAFLCGKLTQALKPSPSEDKESEDCKEPPRPFEAGGAPLQGESNEWEVVVQVEDDRDGDYVSEPETVLTRRKSKVIRKPCAAEPALGAGSLTAEPTDSRKGAAVPVECPTCHKKFLSKYYLKVHNRKHTGEKPFECPKCGKCYFRKENLLEHEARNCMNRSEQVFTCSVCQETFRRRMELRLHMVSHTGEMPYKCSSCSQQFMQKKDLQSHMIKLHGAPKPHAVSASQGWGSGGSGTAQSCPHLDVLPLPVSPTCSAPLVPSASCLGRSYSCTRLLSIVEKSSLCVRNAGTGPRAATGCRCTSRPSTGMKGLMSVSSAAMPSPRRPTSTCTCARTPARSLSSATSVGRPSAPKFGQAQPHPHGREAFQL”, “not failed”; in that of “MTLFAEYNSPYLFAIAFVFFIGVLEMISLIFGHFLSGALDAHLDHYDALSSGPAGQALHYLNIGRVPALVVLCLLAGYFGLFGILIQHGGIMLWQAPLSNLLLVPLSIVLSVFAVHYSGKILAPWLPRDESSALREEEFIGGMAIITGHAAVAGTPCEGKFTDKFGQIHYLLLEPEKGKEFKKGDKVLIICRLSATRYLAERTFYV”, “failed”. In the case of “MRFNYPPDGVSQLIASRWKIGVALALAVLLFFAFLVLLPLADGIVLGIVFAYIARPIQVKFGKYRKIGALIASLFIFIPIVFIVGAGVVEILNQISWIFENQTSVMSGILDFIHGLEIPSTYVERINNAIWNLFTSLLPAVGSVGLISYAQSIGLFVINFIVSIFFCYFLLADGDRLYCAFIGMIPSDYQNIVNRYASHLDLILKGVFIGNAYSALIVSVTSVFVFRAFGFSHVLALATLVFIASVIPLFAGYMVLVPMALFRYFEQGFQSAALFFVVSSLVIYGPPELILRPFLTSLKSKIHPMLLMLAFLGGAFVGGIAGFFAAPILLGALVAAYRVYQEQIHPELVAQADVYLKDPAKACRTDEKNSFQ” it was “failed”.

“MGIKQYSQEELKEMALVEIAHELFEEHKKPVPFQELLNEIASLLGVKKEELGDRIAQFYTDLNIDGRFLALSDQTWGLRSWYPYDQLDEETQPTVKAKKKKAKKAVEEDLDLDEFEEIDEDDLDLDEVEEELDLEADDFDEEDLDEDDDDLEIEEDIIDEDDEDYDDEEEEIK”: the protein production result is recorded as “not failed”. In the case of “MKFRGNFVCQPRAGPAESRPTRPFTPRPSATGSLFMSNQHFVSPDLIRQGFSRAMSDMYREEVPLYGALMELVAEVNAQVLERQPALARHLQSSGELQRLDLERHGAIRVGSAAELATLARLFAVMGMQPVGYYDLTPAGVPVHSTAFRAVHEAALQVSPFRVFTSLLRLELIDNPELRSFAEQVLARRQIFTPQVLELIQQAEAAGGLDAEDAERFIRQALETFRWHHHATVTAAQYASLSAQHRLIADVVAFKGPHINHLTPRTLDIDEVQRLMPARGITPKAVIEGPPRRECPILLRQTSFKALEESVAFTDQAQSQGSHSARFGEIEQRGAALTPKGRELYDRLLNAARDALGDFPNEANAQRYNQLMQEHFREFPDSHPAMREQGLAYFRYFVSETGLAARNQPQRPTTLAALLAAGHLSAEPLVYEDFLPVSAAGIFQSNLGDDSQSHYAGQSNRQAFEAALGRPTLDELQLYAQTQQRSLEHCAATLGLPAL” it was “failed”; in that of “MSLNKQDGENTLQHEKSSSFGYWCSPSPEQLERLSLKQLAAVSNFVIGRRGYGCITFQHDVDLTAFTKSFREELFGKIVIFRSSKTVEVYPDEATKPMIGHGLNVPAIITLENVYPVDKKTKKPMKDTTKFAEFQVFDRKLRSMREMNYISYNPFGGTWTFKVNHFEGHHHHHH”, “not failed”. In the case of “SVNAATVDLRIMETTDLHSNMMDFDYYKDAATEKFGLVRTASLIEQARAEVKNSVLVDNGDVIQGSPLGDYMAAKGLKEGDVHPVYKAMNTLNYAVGNLGNHEFNYGLDFLHKALAGAKFPYVNANIIDAKTGKPMFTPYLIQDTRVVDSDGQIHTLRIGYIGFVPPQIMTWDKANLNGKVTVNDITETARKYIPEMRAKGADVVVVVAHSGLSADPYQAMAENSVYYLSQVPGVDAIMFGHAHAVFPGKDFANIKGADIAKGTLNGVPAVMPGMWGDHLGVVDLVLNNDSGKWQVTQSKAEARPIYDAVAKKSLAAEDGKLVSVLKADHDATREFVSK” it was “not failed”; in that of “MSDRGASAPSLPDDWPAHPDPILALNRMGSFDWDLDAGLFHMDAQAHEVFDLRPEEYDGRPESLALRVPTAESRRMDTIVARAMKDGSENYGTYFRLRRRDGTLRWTHTQGYIRRDETGRPRRIIGIVRDATQ”, “failed”; in that of “MSSQVIPALPKTFSSSLDLWREKNDQLVRQAKQLTRDSRPSLRRQQSAQDTLEGLRELLLTLQGLPAAVPALPLELTVLCNCIILRASLVQAFTEDLTQDLQRGLERVLEAQHHLEPKSQQGLKELWHSVLSASSLPPELLPALHCLASLQAVFWMSTDHLEDLTLLLQTLNGSQTQSSEDLLLLLKSWSPPAEESPAPLILQDAESLRDVLLTAFACRQGFQELITGSLPHAQSNLHEAASGLCPPSVLVQVYTALGACLRKMGNPQRALLYLTEALKVGTTCALPLLEASRVYRQLGDRAAELESLELLVEALSATHSSETFKSLIEVELLLPQPDPASPLHCGTQSQAKHLLASRCLQTGRAEDAAEHYLDLLAMLLGGSETRFSPPTSSLGPCIPELCLEAAAALIQAGRALDALTVCEELLNRTSSLLPKMSSLWENARKRAKELPCCPVWVSATHLLQGQAWSQLKAQKEALSEFSQCLELLFRTLPEDKEQGSDCEQKCRSDVALKQLRVAALISRGLEWVASGQDTKALSDFLLSVQICPGNRDGSFYLLQTLKRLDRKNEASAFWREAHSQLPLEDAAGSLPLYLETCLSWIHPPNREAFLEEFGTSVLESCVL”, “failed”.

Values taken from a protein production outcome set (Wang et al. 2014).
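Note: failed if final PepcDB status was selected cloned or expressed and not failed if soluble or beyond.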
